In article PMC11665475, “The CTR hydrophobic residues of Nem1 catalytic subunit are required to form a protein phosphatase complex with Spo7 to activate yeast Pah1 PA phosphatase” (The Journal of Biological Chemistry, 2024):
Residue numbers refer to the chain shown, from its start.

Key:
Assay in all cases: cell-based or functional assay
protein A-tagged Nem1 8R = biological target: T1, protein A-tagged Nem1 8R (S. cerevisiae, UniProt P38757 1-446, L414 R | L415 R | L417 R | L418 R | L421 R | V430 R | L434 R | L436 R)
T1 sequence (looked up): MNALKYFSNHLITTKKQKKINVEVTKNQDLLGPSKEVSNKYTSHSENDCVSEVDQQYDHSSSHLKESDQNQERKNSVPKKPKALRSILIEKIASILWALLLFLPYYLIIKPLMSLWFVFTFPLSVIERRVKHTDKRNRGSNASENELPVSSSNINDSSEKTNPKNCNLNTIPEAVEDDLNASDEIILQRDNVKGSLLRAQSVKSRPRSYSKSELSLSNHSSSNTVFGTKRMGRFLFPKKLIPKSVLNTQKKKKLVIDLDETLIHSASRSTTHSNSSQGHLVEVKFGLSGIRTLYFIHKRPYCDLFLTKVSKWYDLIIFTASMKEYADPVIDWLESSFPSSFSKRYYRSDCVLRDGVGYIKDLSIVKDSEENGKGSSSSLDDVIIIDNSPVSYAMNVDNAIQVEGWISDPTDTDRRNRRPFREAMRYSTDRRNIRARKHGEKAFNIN

[1] = biological target: T2, protein A-tagged Nem1 Δ(414–446) (S. cerevisiae, UniProt P38757 1-413)
T2 sequence (looked up): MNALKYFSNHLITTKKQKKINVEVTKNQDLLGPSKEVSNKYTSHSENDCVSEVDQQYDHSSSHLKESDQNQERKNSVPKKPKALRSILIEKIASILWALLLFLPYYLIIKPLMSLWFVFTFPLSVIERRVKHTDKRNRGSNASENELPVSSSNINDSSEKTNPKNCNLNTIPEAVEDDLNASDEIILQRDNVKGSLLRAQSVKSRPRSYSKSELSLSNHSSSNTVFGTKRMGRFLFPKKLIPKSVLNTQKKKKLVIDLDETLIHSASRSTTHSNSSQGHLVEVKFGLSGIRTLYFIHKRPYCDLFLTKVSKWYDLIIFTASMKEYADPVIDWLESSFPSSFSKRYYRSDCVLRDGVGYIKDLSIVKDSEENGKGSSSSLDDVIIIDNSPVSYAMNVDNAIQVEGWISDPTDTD

protein A-tagged Nem1 8A = biological target: T3, protein A-tagged Nem1 8A (S. cerevisiae, UniProt P38757 1-446, L414 A | L415 A | L417 A | L418 A | L421 A | V430 A | L434 A | L436 A)
T3 sequence (looked up): T1 sequence (looked up) with R414A, R415A, R417A, R418A, R421A, R430A, R434A, R436A

Measured: share of purified phosphorylated Pah1 found in the pellet of membranes containing the Nem1-PtA variant and Spo7 after centrifugation at 100,000g (translocation of Pah1 to membranes)

B1: Spo7 (natural protein, S. cerevisiae, UniProt P18410 1-259, looked up)
chain: MEPESIGDVGNHAQDDSASIVSGPRRRSTSKTSSAKNIRNSSNISPASMIFRNLLILEDDLRRQAHEQKILKWQFTLFLASMAGVGAFTFYELYFTSDYVKGLHRVILQFTLSFISITVVLFHISGQYRRTIVIPRRFFTSTNKGIRQFNVKLVKVQSTWDEKYTDSVRFVSRTIAYCNIYCLKKFLWLKDDNAIVKFWKSVTIQSQPRIGAVDVKLVLNPRAFSAEIREGWEIYRDEFWAREGARRRKQAHELRPKSE
≤ 20%: all assays above
